Test results published in publication PMC10350833.

Legend:
GFP-p62^S349A (human) = GFP-p62^S349A (human) (UniProt Q13501)
GFP-p62^S349E (human) = GFP-p62^S349E (human) (UniProt Q13501)

FLIP: signal intensity of mCherry-KEAP1 in GFP-p62 bodies of the non-bleached area, percent of the baseline value at 30 min after photobleaching (efflux of KEAP1) (GFP-p62^S349A (human)): 58.2% | FLIP: signal intensity of mCherry-KEAP1 in GFP-p62 bodies of the non-bleached area, percent of the baseline value at 30 min after photobleaching (efflux of KEAP1) (GFP-p62^S349E (human)): 72%
Substance: mCherry-tagged KEAP1 (from UniProt Q14145 1-624) (natural protein)
